Source: patent publication US20240174744A1 (SCIRHOM, published 2024)

B1: antibody 48 (antibody, V domains shown)
VH: QVQLQQSGTELVRPGTSVKVSCKASGYAFTNYLIEWVKQRPGQGLEWIGVINPGSGFTKYNEKFKGKATLTADKSSSTVYMHLSSLTSEDSAVYFCARGLYRAMDYWGQGTSVTVSS
VL: DIQMTQSPASQSASLGESVTITCLASQTIATWLAWYQQKPGKSPQLLIYGATTLADGVPSRFSGGGSGTKFSFKISSLQAEDFVSYYCQQLYSTPYTFGGGTKLEIK
notes: Mouse IgG, kappa light chain; also called clone #48; purified antibody 48
B2: antibody 47 (antibody, V domains shown)
VH: QVQLQQSGAELVRPGTSVKVSCKASGYAFTNYLIEWVKQRPGQGLEWIGVINPGSGFTNYNEKFKGKAILNADKSSSTAYMQLISLTSEDSAVYFCARDLKRAMDHWGQGTSVTVSS
VL: DIQMTQSPASQSASLGESVTITCLASQTIGTWLAWYQQKPGKSPQLLIHAATSLADGVPSRFSGSGSGTKFSFKISSLQAEDFVSYYCQQIYSSPYTFGGGTKLEIK
notes: Mouse IgG, kappa light chain; also called clone #47
B3: antibody 50 (antibody, V domains shown)
VH: QVQLQQSGAELVRPGASVKVSCKASGYAFSNYLIEWVKQRPGQGLEWIGVINPGSGFTKYNEKFKGKATLTADKSSSTAYMQLSSLTSEDSAVYFCARGLYRAMDYWGQGTSVTVSS
VL: DIQMTQSPASQSASLGESVTITCLASQTIGTWLAWYQQKPGKSPQLLIYAAASLADGVPSRFSGGGSGTKFSFKISSLQAEDFVNYYCQQIYSTPYTFGGGTKLEIK
notes: Mouse IgG, kappa light chain; also called clone #50; purified antibody 50
B4: antibody 46 (antibody, V domains shown)
VH: QVTLKESGPGILQPSQTLSLTCSFSGFSLSTFGMGVGWIRQPSGKGLEWLAHIWWDDDNYYNQALKSRLTISKDNTKNQVFLNIANVDTADTATYYCARIRSYDYDVRYAMDYWGQGTSVTVSS
VL: DIKMTQSPSSMYASLRERVTITCKASQDINSYLSWFQQKPGKSPKTLIYRANRLVDGVPSRFSGSGSGQDYSLTISSLEYEDLGIYYCQQYYEFPLTFGAGTRLELK
notes: Mouse IgG, kappa light chain; also called clone #46
B5: antibody 51 (antibody, V domains shown)
VH: QVQLQQSGAELVKPGASVKISCKASGYTFSNYWMNWVKQRPGKGLEWIGQIYPGDGDTKYNGKFKNKATLTADKSSSTAYMQFSSLTSEDSAVYFCARGDLVFVYWGLGTLVTVSA
VL: DVQITQSPSYLAVSPGETITINCRASKNIRKYLAWYQEKPGKTNKLLIYSGSTSQSGVPSRFSGSGSGTDFTLTISSLEPEDFAMYYCQQHNEYPYTFGGGTKLEIK
notes: Mouse IgG, kappa light chain; also called clone #51
B6: antibody 43 (antibody, V domains shown)
VH: QVALKESGPGILQPSQTLSLTCSFSGFSLSTFGMGVGWIRQSSGKGLEWLANIWWDDDKYYNPALKSRLTISKDASKNQAFLKIANVDTADTATYYCARIGNYGSNYWYFDVWGTGTTVTVSS
VL: QIVLTQSPAIMSASPGERVTMTCSANSRISYMYWYQQKPGSSPRLLIYDTSNLASGVPVRFSGSGSGTSYSLTISRMEAEDAATYNCQQWSSYPLTFGAGTKLELK
notes: Mouse IgG, kappa light chain; also called clone #43
B7: antibody 42 (antibody, V domains shown)
VH: QVTLKESGPGILQPSQTLSLTCSLSGFSLSTFGRGVGWIRQPSGKGLEWLAHIWWDDEKYYNPALKSRLTISKDTSKNQVFLRIANVDTADTATYYCARIQNYGSNYWYFDVWGTGTTVTVSS
VL: LIVLTQSPAIMSASPGEKVTMTCGATSRISYMFWYQQKPGSSPRVLIYDTSNLASGVPVRFSGSGSGTSYSLTISRVEAEDVATYYCQQWNSYPLTFGAGTKLELK
notes: Mouse IgG, kappa light chain; also called clone #42; m42
B8: antibody 54 (antibody, V domains shown)
VH: QVTLKESGPGILQPSQTLSLTCSFSGFSLSTFGLGVGWIRQPSGKGLECLAHIWWDDDKYSNPALKSRLTISKDTSKNQVFLKIANVDSADTATYFCARILNYGSNYWYFDVWGTGTTVTVSS
VL: QIVLTQSPALMSASPGEKVTMTCSASSSISYMYWYQQKPGSSPRLLIYDTSNLASGVPVRFSGSGSGTSFSLTVSRMEAEDAATYYCQQWNSYPLTFGAGTKLELK
notes: Mouse IgG, kappa light chain; also called clone #54
B9: antibody 44 (antibody, V domains shown)
VH: QVTLKESGPGILQPSQTLSLTCSFSGFSLSTFGMGVGWIRQPSEKGLEWLAHIWWDDDKYYNPALKSRLTISKDTSKNQIFLKITNVDTAETATYYCSRIGNYGSNYWYFDVWGTGTTVTVSS
VL: QIVLTQSPAVMSASPGEKVTMTCTASSSVYYMYWYQQTPGSSPRLLIYDTSNLASGVPVRFSGSGSGTSYSLTISRMEAEDAATYYCQQWNTYPLTFGAGTKLELK
notes: Mouse IgG, kappa light chain; also called clone #44; m44
B10: antibody 57 (antibody, V domains shown)
VH: QVTLKESGPGILQPSQTLSLTCSFSGFSLSTFGMGVGWIRQPSGKGLEWLAHIWWDDDKYYNPALKSRLTISKDTSKNQIFLKIANVDTADSATFYCARIENYGSNYWYFDVWGTGTTVTVSS
VL: QIVLTQSPAIMSASPGEKVTMTCSASSSVSYMYWYQQKPGSSPRVLIYDTSNLASGVPVRFSGSGSGTSYSLTVSRMEAEDAATYYCQQWNSYPLTFGAGTKLELK
notes: Mouse IgG, kappa light chain; also called clone #57
B11: antibody 49 (antibody, V domains shown)
VH: QVTLKESGPGILQPSQTLSLTCSFSGFSLSTFGMGVGWIRQPSGKGLEWLAHIWWDDDKYYNPALQSRLTVSKDTAKNQVFLKIANVDTADTAIYYCARVGNYGSNYWYFAVWGTGTTVTVSS
VL: QIVLTQSPAIMSASPGEKVTMTCSASSSVSYMYWYQQKPGSSPRLLIYDTSNLASGVPVRFSGSGSGTSYSLTISRMEAEDAATYYCQQWNSYPLTFGAGTKLELK
notes: Mouse IgG, kappa light chain; also called clone #49
B12: antibody 22 (antibody, V domains shown)
VH: QVTLKESGPGILQPSQTLSLTCSFSGFSLSTFGMGVGWIRQPSGKGLEWLAHIWWDDEKYYNSALKSRLTISKATSKNQVFLKIANVDTADTATYYCARISNYGSNYWYFNVWGTGTTVTVSS
VL: QVVLTQSPALMSASPGEKVTMTCSAGSSVSYMYWYQQKPGSSPRVLIYDTSNLASGVPARFTGSGSGTSYSLTISRMEAEDAATYYCQQWNSYPLTFGAGTKLELK
notes: Mouse IgG, kappa light chain; also called clone #22; m22
B13: antibody 56 (antibody, V domains shown)
VH: QVTLKESGPGILQPSQTLSLTCSFSGFSLSTFGMGVGWIRQPSGKGLEWLTNIWWDDDKYYNSVLKSRLTISKDTSKNQVFLKIANVDTADTATYYCARIAAYGSNYWYFDVWGTGTTVTVSS
VL: QIVLTQSPAIMSASPGEKVTMTCSASSSVSYMYWYQQKPGSSPRVLIYDTSNLSSGVPVRFSGSGSGTSYSLTISRMEAEDAATYYCQQWSSYPLTFGAGTKLELK
notes: Mouse IgG, kappa light chain; also called clone #56
B14: antibody 34 (antibody, V domains shown)
VH: QVTLKESGPGILQPSQTLSLTCSFSGFSLSTFSLGVGWIRQSSGKGLEWLAHIWWDDEKYYNPALKSRLTISKDTSKNQVFLKIANVDAADTATYYCARAYYSKSYYALDYWGQGTSVTVSS
VL: DIQMTQSPSSLSASLGERVSLTCRASQEISGYLSWLQQKPDGTIKRLIYAASTLDSGVPKRFSGSRSGSDYSLAISSLESEDFADYYCLQYANFPFTFGSGTKLEIK
notes: Mouse IgG, kappa light chain; also called clone #34; m34

Each binder was assayed against T1, dog iRhom2 full length wild type, C-terminally tagged with 3 consecutive copies of the T7 epitope (dog, UniProt Q00M95 1-827) (assay: FACS, MEF-DKO-Dog-iR2-FL-WT-T7 cells).
T1 construct: whole, on cells; also called Dog-iR2-FL-WT-T7
T1 sequence: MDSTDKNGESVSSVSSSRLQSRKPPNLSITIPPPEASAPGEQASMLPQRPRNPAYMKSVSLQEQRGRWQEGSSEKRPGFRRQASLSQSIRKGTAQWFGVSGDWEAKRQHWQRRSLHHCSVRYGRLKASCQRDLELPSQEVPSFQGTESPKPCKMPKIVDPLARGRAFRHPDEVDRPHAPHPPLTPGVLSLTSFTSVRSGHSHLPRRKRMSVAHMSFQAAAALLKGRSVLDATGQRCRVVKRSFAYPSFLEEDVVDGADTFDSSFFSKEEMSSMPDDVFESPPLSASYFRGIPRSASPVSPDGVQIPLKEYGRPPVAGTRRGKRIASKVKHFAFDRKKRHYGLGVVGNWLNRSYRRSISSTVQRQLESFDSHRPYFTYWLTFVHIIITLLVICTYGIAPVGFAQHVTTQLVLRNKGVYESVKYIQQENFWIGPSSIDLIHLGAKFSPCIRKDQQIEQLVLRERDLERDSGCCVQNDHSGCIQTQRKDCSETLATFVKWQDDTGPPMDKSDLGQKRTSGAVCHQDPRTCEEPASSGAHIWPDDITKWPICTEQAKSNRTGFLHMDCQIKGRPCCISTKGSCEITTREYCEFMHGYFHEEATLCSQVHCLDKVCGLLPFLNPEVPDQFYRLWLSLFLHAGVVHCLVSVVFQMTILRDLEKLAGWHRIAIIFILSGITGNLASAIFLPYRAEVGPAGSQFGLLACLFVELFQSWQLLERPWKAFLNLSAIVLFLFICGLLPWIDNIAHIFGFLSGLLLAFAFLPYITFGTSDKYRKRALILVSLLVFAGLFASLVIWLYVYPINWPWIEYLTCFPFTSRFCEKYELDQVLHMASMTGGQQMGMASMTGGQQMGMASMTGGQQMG
Protocol: In brief, immortalized MEF-DKO-EV control cells, MEF-DKO-rhesus-iR2-FL-WT-T7 cells, MEF-DKO-cyno-iR2-FL-WT-T7 cells, MEF-DKO-dog-iR2-FL-WT-T7 cells and MEF-DKO-rabbit-iR2-FL-WT-T7 cells, as well as their respective iRhom1 counterparts, were harvested with 10 mM EDTA in PBS, washed and resuspended in FACS buffer (PBS, 3% FBS, 0.05% sodium azide), and seeded in Nunc U-bottom 96-well plates (Thermo Fisher Scientific, USA) at approximately 3×10⁵ cells per well. To pellet cells and remove supernatants, the plates were centrifuged at 1,500 rpm and 4° C. for 3 minutes. For primary staining, cells were resuspended in 100 μl per well of either FACS buffer alone (controls), mouse monoclonal anti-T7 IgG (Merck Millipore, USA) at 3 μg/ml FACS buffer or the antibodies of the present disclosure also at 3 μg/ml FACS buffer and incubated on ice for 1 hour. Afterwards, plates were centrifuged at 1,500 rpm and 4° C. for 3 minutes and washed twice with 200 μl per well of FACS buffer. For secondary staining, cells were spun down and resuspended in 100 μl per well of PE-conjugated goat anti-mouse IgG F(ab′)2 detection fragment (Dianova, Germany) diluted 1:100 in FACS buffer. Protected from light, the cell suspensions were incubated on ice for 1 hour. Plates were then centrifuged at 1,500 rpm and 4° C. for 3 minutes and washed three times with 200 μl per well of FACS buffer. Finally, cells were resuspended in 150 μl per well of FACS buffer and analyzed using a BD Accuri™ C6 Plus flow cytometer (Becton Dickinson, Germany).

Does B1 bind?
Result: binds

Does B2 bind?
Result: binds

Does B3 bind?
Result: binds

Does B4 bind?
Result: binds

Does B5 bind?
Result: binds

Does B6 bind?
Result: binds

Does B7 bind?
Result: binds

Does B8 bind?
Result: binds

Does B9 bind?
Result: binds

Does B10 bind?
Result: binds

Does B11 bind?
Result: binds

Does B12 bind?
Result: binds

Does B13 bind?
Result: binds

Does B14 bind?
Result: binds
